Data from PMC4933286.

Assays:
[1] = target: BTV-1 VP5 mutant 2 (R10L/K13L/K14L) (bluetongue virus serotype 1 (BTV-1)); experiment: native gel or EMSA
[2] = target: BTV-1 VP5 mutant 3 (K3L/R6L/R10L/K13L/K14L) (bluetongue virus serotype 1 (BTV-1)); experiment: native gel or EMSA

## BTV-1 VP5 mutant 2 (R10L/K13L/K14L) (natural protein)
[1]
  stoichiometry N: 3

## BTV-1 VP5 mutant 3 (K3L/R6L/R10L/K13L/K14L) (natural protein)
[2]
  stoichiometry N: 3
